This note sets out measurements from patent US20150344570A1 (published 2015).

Assay [1] addresses T1, FcγRIIIa (human, UniProt P08637 17-208).
T1 construct: extracellular domain; also called 3a; FcgRIIIa
The assay can be described thus: SPR (Biacore), antibody captured on antigen-peptide chip, FcγR as analyte; binding of Ho Ab / binding of HoCon Ab GpH7-B3/GpL16-k0 x 100. On the procedure: (§1) Analysis of interaction between objective antibody and the FcγR was carried out using Biacore T100 (GE Healthcare). HBS-EP+ (GE Healthcare) was used as the running buffer, and the measurement temperature was set to 25° C. Chips produced by immobilizing the antigen peptide by the amine coupling method to a Series S Sencor Chip CM5 (GE Healthcare), or alternatively, chips produced by allowing preliminarily biotinylated antigen peptides to interact with and immobilize onto a Series S Sensor Chip SA (certified) (GE Healthcare) were used. Antibodies of interest were captured onto an antigen peptide-immobilized chip, and allowed to interact to each FcγR diluted with running buffer. To regenerate and repeatedly use the chip, the antibodies captured on the chip were washed off by reacting 10 mM glycine-HCl, pH 1.5.
Background: SPR reads the build-up and loss of mass on a sensor chip optically.

Assay [2] concerns the target T2, FcγRIIb extracellular domain with C-terminal His tag (human, UniProt P31994 43-217).
T2 construct: extracellular domain; Soluble receptor expressed in FreeStyle293 cells, used as analyte in Biacore; also called FcgRIIb; 2b; not shown: His tag attached to the C terminus
T2 sequence (looked up): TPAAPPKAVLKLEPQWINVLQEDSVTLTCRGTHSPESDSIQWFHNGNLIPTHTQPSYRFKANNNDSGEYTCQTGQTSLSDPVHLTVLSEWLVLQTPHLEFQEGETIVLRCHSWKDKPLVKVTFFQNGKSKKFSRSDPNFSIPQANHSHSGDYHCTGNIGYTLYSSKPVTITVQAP
The assay can be described thus: SPR (Biacore T100), antibody captured on antigen peptide chip, FcγR as analyte. On the procedure: as §1

Assay [3] concerns the target T3, FcγRIIIa extracellular domain with C-terminal His tag (human, UniProt P08637 17-208).
T3 construct: extracellular domain; also called FcgRIIIa; 3a; not shown: His tag attached to the C terminus
The assay is described as above. On the procedure:
as §1

Assay [4] deals with T3, FcγRIIIa extracellular domain with …. The assay can be described thus: SPR (Biacore); He/Con_3a (FcγRIIIa) divided by He/Con_2b (FcγRIIb).

T1 sequence (P08637 17-208): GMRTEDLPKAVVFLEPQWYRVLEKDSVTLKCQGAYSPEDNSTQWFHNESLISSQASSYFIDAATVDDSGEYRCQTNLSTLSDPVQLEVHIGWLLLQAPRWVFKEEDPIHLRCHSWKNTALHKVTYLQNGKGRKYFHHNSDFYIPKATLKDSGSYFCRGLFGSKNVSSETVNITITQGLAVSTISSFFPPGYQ
T3 sequence (P08637 17-208): as above

B1: GpH7-B3 variant S324_06M/GpL16-k0 (Ho Ab) (antibody, human IgG1, kappa)
heavy: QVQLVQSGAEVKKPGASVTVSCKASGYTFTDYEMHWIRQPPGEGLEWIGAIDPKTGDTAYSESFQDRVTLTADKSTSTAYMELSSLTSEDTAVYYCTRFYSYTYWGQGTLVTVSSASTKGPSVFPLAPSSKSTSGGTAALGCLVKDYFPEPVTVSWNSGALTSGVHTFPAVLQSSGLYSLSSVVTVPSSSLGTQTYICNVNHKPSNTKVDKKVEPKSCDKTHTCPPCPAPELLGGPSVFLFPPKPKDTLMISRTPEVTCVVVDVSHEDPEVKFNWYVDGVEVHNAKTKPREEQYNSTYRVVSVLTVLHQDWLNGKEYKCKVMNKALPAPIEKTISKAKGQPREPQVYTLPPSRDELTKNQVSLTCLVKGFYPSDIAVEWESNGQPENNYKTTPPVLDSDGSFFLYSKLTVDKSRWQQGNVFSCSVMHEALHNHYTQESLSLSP
light: DIVMTQSPLSLPVTPGEPASISCQASESLVHSNRNTYLHWYLQKPGQSPQLLIYKVSNRFSGVPDRFSGSGSGTDFTLKISRVEAEDVGVYYCSQNTHVPPTFGQGTKVEIERTVAAPSVFIFPPSDEQLKSGTASVVCLLNNFYPREAKVQWKVDNALQSGNSQESVTEQDSKDSTYSLSSTLTLSKADYEKHKVYACEVTHQGLSSPVTKSFNRGEC
notes: Homodimerized anti-glypican-3 antibody; the alteration stands in both H chains
For the molecule B1, the Ho/Con_3a in assay [1] was 114 relative to control = 100.

B2: GpH7-A5/GpH7-B3 variant S267_19Q/GpL16-k0 (antibody, human IgG1, kappa)
heavy 1: not shown
heavy 2: not shown
light: B1 light
notes: Heterodimerized antibody (He Ab) with the mutation in only one H chain; also called He Ab S267Q
As to B2, the He/Con_2b in assay [2] is 218 relative binding, GpH7-A5/GpH7-B3/GpL16-k0 = 100. Further, the He/Con_3a in assay [3] is 65 relative binding, GpH7-A5/GpH7-B3/GpL16-k0 = 100. In addition, the “He_3a/2b (IIIa/IIb)” value in assay [4] came out at 0.3 ratio.

B3: GpH7-B3 variant T335_06M/GpL16-k0 (Ho Ab) (antibody, human IgG1, kappa)
heavy: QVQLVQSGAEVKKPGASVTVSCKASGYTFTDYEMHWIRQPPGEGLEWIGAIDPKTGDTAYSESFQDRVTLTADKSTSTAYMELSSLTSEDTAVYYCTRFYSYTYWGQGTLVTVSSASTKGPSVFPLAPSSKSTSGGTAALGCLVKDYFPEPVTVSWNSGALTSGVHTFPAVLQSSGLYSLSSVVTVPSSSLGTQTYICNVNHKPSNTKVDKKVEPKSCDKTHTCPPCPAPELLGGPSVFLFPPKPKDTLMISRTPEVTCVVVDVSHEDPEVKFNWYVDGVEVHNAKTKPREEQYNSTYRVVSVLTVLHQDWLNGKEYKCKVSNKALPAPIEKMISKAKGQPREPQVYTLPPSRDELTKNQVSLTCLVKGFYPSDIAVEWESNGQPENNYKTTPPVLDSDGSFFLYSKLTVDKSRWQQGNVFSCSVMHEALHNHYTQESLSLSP
light: B1 light
notes: as for B1
On to B3, for which the Ho/Con_3a in assay [1] is 107 relative to control = 100.

B4: GpH7-B3 variant S324_09D/GpL16-k0 (Ho Ab) (antibody, human IgG1, kappa)
heavy: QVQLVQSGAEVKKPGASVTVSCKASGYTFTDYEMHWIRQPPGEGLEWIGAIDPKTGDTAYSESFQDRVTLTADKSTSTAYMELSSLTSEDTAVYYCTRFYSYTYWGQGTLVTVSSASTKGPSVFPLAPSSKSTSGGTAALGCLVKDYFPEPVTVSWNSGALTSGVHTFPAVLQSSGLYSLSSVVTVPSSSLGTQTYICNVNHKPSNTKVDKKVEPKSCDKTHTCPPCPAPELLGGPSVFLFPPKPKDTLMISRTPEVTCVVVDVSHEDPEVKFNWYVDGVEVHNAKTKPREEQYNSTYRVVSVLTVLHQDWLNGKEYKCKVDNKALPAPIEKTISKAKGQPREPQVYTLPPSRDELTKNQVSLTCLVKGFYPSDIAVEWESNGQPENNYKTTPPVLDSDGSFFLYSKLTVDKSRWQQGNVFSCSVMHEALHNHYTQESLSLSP
light: B1 light
notes: as for B1
For B4, the Ho/Con_3a in assay [1] is 101 relative to control = 100.

B5: GpH7-B3 variant S298_03V/GpL16-k0 (Ho Ab) (antibody, human IgG1, kappa)
heavy: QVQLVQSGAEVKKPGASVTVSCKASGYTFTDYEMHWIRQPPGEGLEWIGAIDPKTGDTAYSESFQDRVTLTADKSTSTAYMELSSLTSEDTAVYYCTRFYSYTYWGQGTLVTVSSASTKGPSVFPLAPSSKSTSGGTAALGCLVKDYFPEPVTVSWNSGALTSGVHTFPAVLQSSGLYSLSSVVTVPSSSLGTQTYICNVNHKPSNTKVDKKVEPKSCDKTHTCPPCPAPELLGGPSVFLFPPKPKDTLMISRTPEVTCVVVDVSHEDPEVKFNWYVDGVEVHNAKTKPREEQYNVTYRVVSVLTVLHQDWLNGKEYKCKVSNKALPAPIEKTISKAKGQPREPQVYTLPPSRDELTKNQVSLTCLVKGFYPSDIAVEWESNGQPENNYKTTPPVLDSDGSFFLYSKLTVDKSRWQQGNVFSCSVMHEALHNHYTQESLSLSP
light: B1 light
notes: as for B1
For the molecule B5, the Ho/Con_3a in assay [1] is 110 relative to control = 100.

B6: GpH7-A5/GpH7-B3 variant S267_20W/GpL16-k0 (antibody, human IgG1, kappa)
heavy 1: not shown
heavy 2: not shown
light: B1 light
notes: Heterodimerized antibody (He Ab) with the mutation in only one H chain; also called He Ab S267W
Regarding B6, the He/Con_2b in assay [2] was 57.2 relative binding, GpH7-A5/GpH7-B3/GpL16-k0 = 100. Moreover, in assay [3], the He/Con_3a is 21.5 relative binding, GpH7-A5/GpH7-B3/GpL16-k0 = 100. For the same molecule, the “He_3a/2b (IIIa/IIb)” value in assay [4] amounted to 0.37 ratio.

B7: GpH7-A5/GpH7-B3 variant H268_02A/GpL16-k0 (antibody, human IgG1, kappa)
heavy 1: not shown
heavy 2: not shown
light: B1 light
notes: Heterodimerized antibody (He Ab) with the mutation in only one H chain; also called He Ab H268A
Regarding B7, the He/Con_2b in assay [2] is 167 relative binding, GpH7-A5/GpH7-B3/GpL16-k0 = 100. For the same molecule, the He/Con_3a in assay [3] is 122 relative binding, GpH7-A5/GpH7-B3/GpL16-k0 = 100. Besides, the “He_3a/2b (IIIa/IIb)” value in assay [4] is 0.73 ratio.

B8: GpH7-B3 variant S324_14T/GpL16-k0 (Ho Ab) (antibody, human IgG1, kappa)
heavy: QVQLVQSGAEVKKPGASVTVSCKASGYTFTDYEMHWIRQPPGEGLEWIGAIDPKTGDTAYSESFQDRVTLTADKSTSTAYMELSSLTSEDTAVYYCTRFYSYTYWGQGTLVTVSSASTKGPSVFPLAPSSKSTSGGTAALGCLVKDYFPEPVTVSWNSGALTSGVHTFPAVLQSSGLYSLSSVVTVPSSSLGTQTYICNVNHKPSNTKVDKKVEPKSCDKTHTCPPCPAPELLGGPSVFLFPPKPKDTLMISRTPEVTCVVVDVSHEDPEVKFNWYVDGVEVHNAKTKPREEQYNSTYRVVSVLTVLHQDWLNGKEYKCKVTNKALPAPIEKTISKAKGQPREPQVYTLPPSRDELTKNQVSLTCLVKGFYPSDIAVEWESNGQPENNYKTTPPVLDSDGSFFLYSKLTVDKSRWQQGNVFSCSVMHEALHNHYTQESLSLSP
light: B1 light
notes: as for B1
Consider B8, for which the Ho/Con_3a in assay [1] was 108 relative to control = 100.

B9: GpH7-A5/GpH7-B3 variant P271_01G/GpL16-k0 (antibody, human IgG1, kappa)
heavy 1: not shown
heavy 2: not shown
light: B1 light
notes: Heterodimerized antibody (He Ab) with the mutation in only one H chain; also called He Ab P271G
In the case of B9, the He/Con_2b in assay [2] is 193 relative binding, GpH7-A5/GpH7-B3/GpL16-k0 = 100. In addition, the He/Con_3a in assay [3] was 113 relative binding, GpH7-A5/GpH7-B3/GpL16-k0 = 100. In addition, in assay [4], the “He_3a/2b (IIIa/IIb)” value was found to be 0.59 ratio.

B10: GpH7-A5/GpH7-B3 variant H268_01G/GpL16-k0 (antibody, human IgG1, kappa)
heavy 1: not shown
heavy 2: not shown
light: B1 light
notes: Heterodimerized antibody (He Ab) with the mutation in only one H chain; also called He Ab H268G
On to B10, for which the He/Con_2b in assay [2] is 144 relative binding, GpH7-A5/GpH7-B3/GpL16-k0 = 100. In addition, the He/Con_3a in assay [3] is 96.7 relative binding, GpH7-A5/GpH7-B3/GpL16-k0 = 100. The “He_3a/2b (IIIa/IIb)” value in assay [4] was 0.67 ratio.

B11: GpH7-B3 variant S324_20W/GpL16-k0 (Ho Ab) (antibody, human IgG1, kappa)
heavy: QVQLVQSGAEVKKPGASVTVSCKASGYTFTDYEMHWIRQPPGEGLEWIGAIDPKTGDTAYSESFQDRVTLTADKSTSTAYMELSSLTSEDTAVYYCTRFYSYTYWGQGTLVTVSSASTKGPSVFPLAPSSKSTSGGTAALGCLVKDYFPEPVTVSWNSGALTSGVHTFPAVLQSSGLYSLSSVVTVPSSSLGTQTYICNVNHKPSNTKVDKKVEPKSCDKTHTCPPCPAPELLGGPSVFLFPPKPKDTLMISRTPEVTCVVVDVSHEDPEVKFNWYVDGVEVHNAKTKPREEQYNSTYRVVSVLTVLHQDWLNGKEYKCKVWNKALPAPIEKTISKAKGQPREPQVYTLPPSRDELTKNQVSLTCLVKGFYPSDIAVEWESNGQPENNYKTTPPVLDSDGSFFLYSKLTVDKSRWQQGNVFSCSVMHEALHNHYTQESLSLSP
light: B1 light
notes: as for B1
Turning to B11, the Ho/Con_3a in assay [1] was 102 relative to control = 100.

B12: GpH7-B3 variant S239_18N/GpL16-k0 (Ho Ab) (antibody, human IgG1, kappa)
heavy: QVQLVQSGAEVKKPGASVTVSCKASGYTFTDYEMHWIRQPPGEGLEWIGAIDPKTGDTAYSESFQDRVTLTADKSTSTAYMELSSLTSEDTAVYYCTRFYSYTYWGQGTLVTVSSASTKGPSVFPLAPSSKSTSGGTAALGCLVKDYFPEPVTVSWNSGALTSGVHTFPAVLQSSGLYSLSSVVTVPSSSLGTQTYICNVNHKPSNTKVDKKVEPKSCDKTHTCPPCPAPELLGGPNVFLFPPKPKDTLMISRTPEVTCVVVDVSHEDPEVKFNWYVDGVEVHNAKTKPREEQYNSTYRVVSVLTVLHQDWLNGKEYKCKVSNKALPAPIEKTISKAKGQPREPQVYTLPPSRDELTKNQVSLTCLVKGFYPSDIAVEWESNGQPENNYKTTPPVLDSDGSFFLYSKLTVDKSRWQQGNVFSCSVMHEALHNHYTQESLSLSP
light: B1 light
notes: as for B1
B12: the Ho/Con_3a in assay [1] is 116 relative to control = 100.

B13: GpH7-B3 variant S337_01G/GpL16-k0 (Ho Ab) (antibody, human IgG1, kappa)
heavy: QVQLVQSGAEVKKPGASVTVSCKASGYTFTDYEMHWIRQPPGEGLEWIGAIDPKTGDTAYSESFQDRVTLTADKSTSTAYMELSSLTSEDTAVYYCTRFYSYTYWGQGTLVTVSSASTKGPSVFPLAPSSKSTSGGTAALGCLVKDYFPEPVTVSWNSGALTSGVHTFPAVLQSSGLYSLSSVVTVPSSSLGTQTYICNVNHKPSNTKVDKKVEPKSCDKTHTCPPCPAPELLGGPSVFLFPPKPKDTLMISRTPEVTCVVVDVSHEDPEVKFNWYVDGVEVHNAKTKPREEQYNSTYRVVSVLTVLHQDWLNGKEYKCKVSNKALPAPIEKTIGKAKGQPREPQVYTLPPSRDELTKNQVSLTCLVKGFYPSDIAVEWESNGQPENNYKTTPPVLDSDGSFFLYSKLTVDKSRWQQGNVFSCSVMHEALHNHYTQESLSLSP
light: B1 light
notes: as for B1
In the case of B13, in assay [1], the Ho/Con_3a is 108 relative to control = 100.

B14: GpH7-A5/GpH7-B3 variant S267_16H/GpL16-k0 (antibody, human IgG1, kappa)
heavy 1: not shown
heavy 2: not shown
light: B1 light
notes: Heterodimerized antibody (He Ab) with the mutation in only one H chain; also called He Ab S267H
For B14, the He/Con_2b in assay [2] was 65.9 relative binding, GpH7-A5/GpH7-B3/GpL16-k0 = 100. Besides, the He/Con_3a in assay [3] is 17.9 relative binding, GpH7-A5/GpH7-B3/GpL16-k0 = 100. For the same molecule, the “He_3a/2b (IIIa/IIb)” value in assay [4] was 0.27 ratio.

B15: GpH7-A5/GpH7-B3 variant H268_05P/GpL16-k0 (antibody, human IgG1, kappa)
heavy 1: not shown
heavy 2: not shown
light: B1 light
notes: Heterodimerized antibody (He Ab) with the mutation in only one H chain; also called He Ab H268P
Consider B15, for which the He/Con_2b in assay [2] is 116 relative binding, GpH7-A5/GpH7-B3/GpL16-k0 = 100. Moreover, the He/Con_3a in assay [3] was 76.4 relative binding, GpH7-A5/GpH7-B3/GpL16-k0 = 100. Further, the “He_3a/2b (IIIa/IIb)” value in assay [4] is 0.66 ratio.

B16: GpH7-A5/GpH7-B3 variant H268_13S/GpL16-k0 (antibody, human IgG1, kappa)
heavy 1: not shown
heavy 2: not shown
light: B1 light
notes: Heterodimerized antibody (He Ab) with the mutation in only one H chain; also called He Ab H268S
In the case of B16, the He/Con_2b in assay [2] was 160 relative binding, GpH7-A5/GpH7-B3/GpL16-k0 = 100. In assay [3], the He/Con_3a is 122 relative binding, GpH7-A5/GpH7-B3/GpL16-k0 = 100. Moreover, the “He_3a/2b (IIIa/IIb)” value in assay [4] amounted to 0.76 ratio.
